# B1: I209N NSF (N-ethylmaleimide-sensitive factor, C. griseus ortholog with the I209N mutation) (enzyme)
# chain: MAGRSMQAARCPTDELSLSNCAVVSEKDYQSGQHVIVRTSPNHKYIFTLRTHPSVVPGSVAFSLPQRKWAGLSIGQEIEVALYSFDKAKQCIGTMTIEIDFLQKKNIDSNPYDTDKMAAEFIQQFNNQAFSVGQQLVFSFNDKLFGLLVKDIEAMDPSILKGEPASGKRQKIEVGLVVGNSQVAFEKAENSSLNLIGKAKTKENRQSINNPDWNFEKMGIGGLDKEFSDIFRRAFASRVFPPEIVEQMGCKHVKGILLYGPPGCGKTLLARQIGKMLNAREPKVVNGPEILNKYVGESEANIRKLFADAEEEQRRLGANSGLHIIIFDEIDAICKQRGSMAGSTGVHDTVVNQLLSKIDGVEQLNNILVIGMTNRPDLIDEALLRPGRLEVKMEIGLPDEKGRLQILHIHTARMRGHQLLSADVDIKELAVETKNFSGAELEGLVRAAQSTAMNRHIKASTKVEVDMEKAESLQVTRGDFLASLENDIKPAFGTNQEDYASYIMNGIIKWGDPVTRVLDDGELLVQQTKNSDRTPLVSVLLEGPPHSGKTALAAKIAEESNFPFIKICSPDKMIGFSETAKCQAMKKIFDDAYKSQLSCVVVDDIERLLDYVPIGPRFSNLVLQALLVLLKKAPPQGRKLLIIGTTSRKDVLQEMEMLNAFSTTIHVPNIATGEQLLEALELLGNFKDKERTTIAQQVKGKKVWIGIKKLLMLIEMSLQMDPEYRVRKFLALLREEGASPLDFD
# notes: legend gives 82.8 kDa monomeric, 496.8 kDa hexameric; also called NSF I209N; I209N NSF protein; source: E. coli BL21(DE3)-RIL, purified (Nickel-NTA, SEC; monomerized without ATP, reassembled by SEC with 1 mM ATP)
# Target: the molecule itself
# Assay: SEC; NSF alone, reassembled to the hexamer by a final SEC run with buffer containing 1 mM ATP
protein,measurement,value
B1,stoichiometry N,6

# Reference: paper PMC10524599, “Sensory deficit screen identifies nsf mutation that differentially affects SNARE recycling and quality control” (Cell reports, 2023)
